This note sets out measurements from the NTF2 design screens of Basanta et al. (2020).

This data set is described as follows: protease stability score; higher = more stable; yeast display proteolysis, trypsin and chymotrypsin.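 Note: relative to predicted unfolded state with 0 unfolded-like and 1 meaning tenfold more protease.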
As to “DEEEKAVKHAVERFVESTQTGNEHKLNELMDPNVRIDFNGVELIGREWFSKLLSEIRSDRFHIHDIRLQGEKADNDTREKGHVDGRTTEMTVRLIWIKFDGKWRLETVIFQ”, the protease stability score was determined as 1.01.

“DEEEKDAIMLSEISTHLMSTGDEHETSHNADPNTRLEYGDFEFHGREEFIKIWVEQMEKVKGMTIRLHSIHVQGDKAVSHVKIHVNGVDFHIIYIAEKFNGRWQLRSSIVI” registered a protease stability score of 1.06.

Regarding “DEEEKDAKEIFRLSHDWWRTGDEMLIHMNFDPNVRLRIGDKSSHGREDVARIIVKVYKDFGVKHFEIREVDHQGEKIKLDGVSNFNGKEVKIEISSNKVNGVWVIKEVNIQ”, the protease stability score came to 1.11.

As for “DEEEKDIRKALEWFWESFKTGDEDSVRKMLDPDTRIIYGDKEHHGRENASRFIHELKRRMGIKHTEIRLNSMEVQGDKVSFYTILILRFDGREIRIETHIEARKVDGRWFTTSIEFH”, the protease stability score amounted to 1.42.

“DEEEKDMRHVLKLWVNEFLTGNEKNLSELMDPNVRVDIDGKQLHGRETLSHKIVEDAREARVRLEVESIRVVNGKAHVDVVLRFHQGDKSDHREIRVVFRKVDGRWLLHSLEVH” had a protease stability score of 1.37.

In turn, “DEEEKDVQKILKIMIESMKTGDEHTIERLVDPHVRLIINGKRLHGWELFVKIVHHEAEHARVDEIRIDHMHVIDGRAHLYLTIKRTVGDKHIKLDLEFIWSKFDGRWHVEEERRE” registered a protease stability score of 1.14.

For the sequence “DEEEKDVRFFIKLLVHSLRTGDERALKHLLDPNVRMDINGREKIGWHQLRELLEEWRMHDIHITSVEVQGEKLFSHGLLEGVIGDKRVELEVEHTARKIDGRWIYTEVKFR”, the protease stability score was found to be 1.32.

In turn, “DEEEKEAEDFFHDWVHSMLTGDEDTLRRMIDPHVKIQVGDKEFHGMKWATRMYREIRIEDMRLRRVHVINGKADIHSITHTNINGRQEDIHITIIIEKVDGRWILRSVIIR” returned a protease stability score of 2.13.

The sequence “DEEEKEAKHASERINHDFLTGDWKSLEKLADPETRLIVNGRDFHGRERVLHELVRFYHELGVNHFRIRDIRVIGNKIHVDNQIDVGEKHNEMHVISSKVNGRWVLHTVELN” showed a protease stability score of 1.23.

Consider “DEEEKEAREALEEFIRSVHTGDEDHMVWMFDPNTRIEVGDKKLHGRELAEEFAERWKKHIRLEDVNLTEVHVQGEKVHIRGILHGTVGDKEVRRESEVMMLKVDGRWFLHSIKFK”, for which the protease stability score was found to be 0.463.

With “DEEEKEATHYLELFWKLKETGDWDELHRLLDPNVRLRINGKDVHGMERVTEEHLKRMKEIRIRHYHLDELRVQGDFVHIDVRVNGEIDGKRNMIEFHFHARKVDGRWFLHEVRIR”, the protease stability score amounted to 1.79.

The sequence “DEEEKEAVRHWELFMKAELTGDEEKLKNLADPNTRILFNGVEQIGWEELIRKLREIRIKLHDYRVHQVDRIDGRVILDFRVDIILYVGDKFFKHEIRVHVFILKYDGKWILEYEEIK” came in with a protease stability score of 0.736.

“DEEEKEAYIWLELLLEHERTGNEEEIMHLADPHTRLQFNGVESHGRERFFEHVRHKIRHMRVEIRIRNFEFQGEYAHLHGEDILRIGDKTERIDMRFVLLVVNGRIKSIHIHVH” came in with a protease stability score of 0.694.

Regarding “DEEEKEDHKMLHDFIHLWLTGDEEDWSHLADPRTRLILIQGDKVIDRHGMELASEELRRILEEMRVDDFKVEHVEVINGKSKVHGKTDVTFNGKREIIDIHIELHVVNGRMKTVKMVWI”, the protease stability score was 0.927.

Take “DEEEKEFEFAEQVLKESLLTGDERTLKELMDPHVRLEQGDKLYIGRESFIKWWSKRREELGINHLHYRIKEVHIVNGRVRVNSHIEIIIGDKRHEEKVHFVLLKINGRWLMESVHME”: the protease stability score came to 1.46.

On to “DEEEKEIKEMLHEYLRAVETGDEHTLHRLMDPHVRIDVNGRQVVGREEWLKILRELGIKVSELIFRDIKFQGDKVNIDAEERLHYNGRTVTTRVTITAWKYDGRWTVQSKKVD”, for which the protease stability score was 2.04.

“DEEEKEIRHQAEHWFHIILTGDEDTLRNLADPNVRSVWVIGDYERHEHGMDEHNKILKEWRFEEYRRDSIHAINGRVHLDIRSVMTINGKRMSFRIHIDIHVVNGVRKSITIRIE” showed a protease stability score of 0.702.

Sequence “DEEEKEMKEALHEQKRSHETGDERVLEELIDPNVRLDINGREHHGREEAIRLWHELGIDHFDIRDFRVVNGRAHIDGHMVINGQRVDVTLIVHKINGRWRQHHIVVR” showed a protease stability score of 0.04.

The sequence “DEEEKEMKEIMHMLDHWLRTGDEETLNHYLDPNVRLIIFIDGRNLTSIGREESRELWRYVVEEWRIHDMHVTEVRSQGDKAESNTRLKGHVNGVERTLIQHIEVDVVDGRIKRIIIRVH” showed a protease stability score of 2.1.

“DEEEKEMRELFHHIIRLIDTGDFDTLKQLADPNTQLHIGDKHSHGREEVVRMNRHWRYHDSKIRDSHVVNGVIHVDAESNLKFDGVRTVTHVRLILYVVDGRLKSLEIRIE” returned a protease stability score of 0.44.

Turning to “DEEEKESEEAFRIHKEVLETGDEHLIERMLDPNTRIIIGDKNIHGRESALETMIKLGVKHVHIRRWNDFNGRAENDVQMRFNGRTHEVHLFALKFNGRWLMHEIEFR”, the protease stability score is 1.25.

Sequence “DEEEKESRLALEEFLTMMKTGDEDRFTELADPHARSHYNGREHHGREVFLDWFRRVKGLKVDLQHVKTFNGRIIIHVRFHYDGVTYYVEIFVEKFDGRWYLTRVHHI” had a protease stability score of 0.421.

For the sequence “DEEEKEVHKFMDLLVRALETGDEDEFLSLVDPNARVEIGDKLLHGRESEHWLTEHIKKVAGVERFTHHIHLKDWTIFNGRVRVDGILHLDYGNFHVERRSDFIIYKVDGRWIMRSERVH”, the protease stability score worked out at 0.185.

In turn, “DEEEKFSREVMELHIELWETGDEDTLTRLADPHAKFVLEWNGRNHTNHGMDVLIHMLHRLLKELGIKHTELRRKDVIGDKNHIHRRVIVNGVPTDLDLELVIIDGKLREYRIHIRIR” yielded a protease stability score of 1.56.

In turn, “DEEEKHARKVFRELEESLRTGDEHSMRRLLDPHTKIIINGQEHVGMEHADKFVHELRLKDSKIRHLEMHVIDGQAHLKMDVDVEGNFNGRDTRDRVTEIWIVDKINGRWLVSEVRFVKR” registered a protease stability score of 1.13.

On to “DEEEKHDTFMTEIFKEIYQTGDEDALATMADPDTRLIIRIGDYTEENHGWKFFIEKLMRLIRKVKNLRYIETRDHVFDGQSHIHGILIINGRKREVEIIIYIFDGRIKSIEIRIV”, for which the protease stability score was found to be 1.79.

Turning to “DEEEKHHHELFKEWSRSLITGDFTTMERMIDPNARFEINGVEFHGMDTLRKFTEHLGWEIEHVHDHRIEVYDGVDHVDTKIRGRIDGRRTETRARIILFIYDGRIKSIHEETK”, the protease stability score amounted to 0.631.

Take “DEEEKHIRKMAEDLKRAFATGDWELLLEMFDPDVRINIIVNGRIIEEHGMENHVRKHVELGITVRLKDEHVESQGNWAHHEGRLEVNVNGKEKSFDVHINLLIVNGRLKESHLKIE”: the protease stability score was found to be 2.07.

The sequence “DEEEKHLKKLKDMEWKLFETGNEDEIAKLADPNTRTEIDFNGVRIILHGRHVFAKYLTRWWRSLGIDHIRLEEMDIQGDYVTIRGKEDYNGKEKRVTIIIVIVDGRLKEIHVDVR” registered a protease stability score of 0.967.

As to “DEEEKHLRDMMEIVIKLFMTGDWDAFHEMADPDVKFQVDVGDKHIHRHGREEVVEELIRLLEHWRVRNIRIHDIKLIGDKLVVEGRWETSYGDKSHDEDVELIVIVVDGKIKKVRIIIR”, the protease stability score was 2.72.

As for “DEEEKHSEDIADLMLRWWLTGDFELLAKYADPRVRLDINGREFHGREEYEEVMKDLIRRFKNVKIEIRDYEIQGEKVHVDTRLHINGKTHTVHLTFVVIDGVIKSESIRVR”, the protease stability score is 1.27.

On to “DEEEKHVRKMVEIESHSHQTGDFDSIRELADPHMRIDINGVELHGWKEFERFLREIRVHHIKIKSVRDINGVAVVDTIVHGHIDGRTDTFDAHVVILKINGQWRIKSIKIE”, for which the protease stability score came out at 0.918.

Take “DEEEKHWTTLIEIHFKDLLTGDEDSNLHLADPDYRLRMHFDGRELIFIGREEIHKFWHETVHKFKNMRIEINDSDIQGDKFDVDIAIRIDGVEIRYRLIIILFNGRTHRQEVHNI”: the protease stability score was 1.3.

Sequence “DEEEKIAEEMFRRWVELRETGNEDDRRRLADPHTRMVINGVEYHGRDQFTKFLEHVRREWRYEDNKERDVKFQGDKIEINGREVSHFDGKTVTTDVRIEIVVVNGRLKRFNIHVH” displayed a protease stability score of 1.38.
